Tests used:
Assay in all cases: cell-based or functional assay
[1] = biological target: Tau seeds: sonicated human insoluble Tau from patients with Alzheimer's disease (AD-PHF, fraction 8) (human) (UniProt P10636)
[2] = biological target: Tau seeds: sonicated human insoluble Tau from patients with progressive supranuclear palsy (PSP-PHF, fraction 8) (human) (UniProt P10636)
[3] = biological target: Tau seeds: sonicated human insoluble Tau from patients with frontotemporal dementia (FTD-PHF) (human) (UniProt P10636)
Tau seeds: sonicated human insoluble Tau from patients with frontotemporal dementia (FTD-PHF) (human), sequence (P10636 other isoform, or with tags, fused parts or gaps limits assumed): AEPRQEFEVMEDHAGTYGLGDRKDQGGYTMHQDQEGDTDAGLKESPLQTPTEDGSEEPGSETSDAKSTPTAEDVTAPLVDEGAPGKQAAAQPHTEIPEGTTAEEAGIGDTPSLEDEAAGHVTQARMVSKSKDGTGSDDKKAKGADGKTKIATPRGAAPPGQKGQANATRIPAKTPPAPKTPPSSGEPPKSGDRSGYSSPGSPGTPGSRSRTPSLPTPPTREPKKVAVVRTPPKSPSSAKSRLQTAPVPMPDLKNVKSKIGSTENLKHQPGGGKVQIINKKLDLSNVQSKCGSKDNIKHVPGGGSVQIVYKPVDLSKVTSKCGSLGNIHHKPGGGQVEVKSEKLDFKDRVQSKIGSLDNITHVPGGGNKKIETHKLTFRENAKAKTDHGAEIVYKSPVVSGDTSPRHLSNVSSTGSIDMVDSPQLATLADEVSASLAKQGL

[4] = biological target: Tau seeds: brain fraction from transgenic mice expressing human Tau P301S (human) (UniProt P10636)
Tau seeds: brain fraction from transgenic mice expressing human Tau P301S (human), sequence (P10636 other isoform, or with tags, fused parts or gaps P301S P301S): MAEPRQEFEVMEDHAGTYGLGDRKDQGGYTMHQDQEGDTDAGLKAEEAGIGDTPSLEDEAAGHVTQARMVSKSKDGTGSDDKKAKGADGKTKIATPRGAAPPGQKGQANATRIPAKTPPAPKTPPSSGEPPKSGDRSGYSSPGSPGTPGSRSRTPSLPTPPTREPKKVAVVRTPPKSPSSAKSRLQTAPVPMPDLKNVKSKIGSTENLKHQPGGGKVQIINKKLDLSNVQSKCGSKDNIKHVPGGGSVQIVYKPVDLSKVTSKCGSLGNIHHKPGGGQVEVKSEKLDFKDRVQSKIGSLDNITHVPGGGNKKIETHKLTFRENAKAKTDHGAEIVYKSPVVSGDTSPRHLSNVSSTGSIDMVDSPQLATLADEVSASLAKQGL

[5] = biological target: Tau seeds: brain fraction from transgenic mice expressing human Tau P301L (human) (UniProt P10636)
Tau seeds: brain fraction from transgenic mice expressing human Tau P301L (human), sequence (P10636 other isoform, or with tags, fused parts or gaps P301L P301L limits assumed): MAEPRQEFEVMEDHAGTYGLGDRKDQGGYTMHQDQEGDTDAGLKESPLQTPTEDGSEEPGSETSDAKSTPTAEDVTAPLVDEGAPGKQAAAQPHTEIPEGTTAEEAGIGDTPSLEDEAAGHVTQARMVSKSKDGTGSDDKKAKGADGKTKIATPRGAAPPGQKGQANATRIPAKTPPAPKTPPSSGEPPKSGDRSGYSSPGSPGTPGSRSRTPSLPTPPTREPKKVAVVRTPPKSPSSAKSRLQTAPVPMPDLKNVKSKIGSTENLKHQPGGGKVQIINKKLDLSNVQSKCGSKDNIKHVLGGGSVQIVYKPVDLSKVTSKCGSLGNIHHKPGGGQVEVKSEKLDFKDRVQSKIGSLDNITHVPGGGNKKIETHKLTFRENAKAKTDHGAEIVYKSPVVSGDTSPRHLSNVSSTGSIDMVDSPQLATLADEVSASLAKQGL

IPN002 of WO2014/028777A2 (antibody), sequence (VH): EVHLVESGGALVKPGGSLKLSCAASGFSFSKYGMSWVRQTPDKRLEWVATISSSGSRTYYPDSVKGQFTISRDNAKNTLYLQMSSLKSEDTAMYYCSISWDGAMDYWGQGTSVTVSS
IPN002 of WO2014/028777A2 (antibody), sequence (VL): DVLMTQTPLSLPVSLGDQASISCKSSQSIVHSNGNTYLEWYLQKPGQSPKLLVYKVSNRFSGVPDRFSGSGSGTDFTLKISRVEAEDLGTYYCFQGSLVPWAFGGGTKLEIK
Tau seeds: sonicated human insoluble Tau from patients with Alzheimer's disease (AD-PHF, fraction 8) (human), sequence (P10636 other isoform, or with tags, fused parts or gaps limits assumed): as the sequence (P10636 other isoform, or with tags, fused parts or gaps limits assumed) above
Tau seeds: sonicated human insoluble Tau from patients with progressive supranuclear palsy (PSP-PHF, fraction 8) (human), sequence (P10636 other isoform, or with tags, fused parts or gaps limits assumed): as above
HJ8.5 of WO 2014/008404 (antibody), sequence (VH): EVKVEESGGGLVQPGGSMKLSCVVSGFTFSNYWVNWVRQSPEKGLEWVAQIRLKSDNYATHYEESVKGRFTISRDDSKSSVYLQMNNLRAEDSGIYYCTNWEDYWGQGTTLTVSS
HJ8.5 of WO 2014/008404 (antibody), sequence (VL): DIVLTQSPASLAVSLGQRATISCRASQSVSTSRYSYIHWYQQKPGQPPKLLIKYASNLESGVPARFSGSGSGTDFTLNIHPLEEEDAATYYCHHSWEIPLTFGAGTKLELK

Substance	Imax (maximal efficacy at 300 nM), cellular Tau aggregation assay [1]	Imax (maximal efficacy at 300 nM), cellular Tau aggregation assay [2]	Imax (maximal efficacy at 300 nM), cellular Tau aggregation assay [3]	Imax (maximal efficacy at 300 nM), cellular Tau aggregation assay [4]	IC50, cellular Tau aggregation assay [2]	IC50, cellular Tau aggregation assay [5]	Imax (maximal efficacy at 300 nM), cellular Tau aggregation assay [5]	IC50, cellular Tau aggregation assay [4]	IC50, cellular Tau aggregation assay [1]	IC50, cellular Tau aggregation assay [3]
AT8 (MN1020) (antibody)	19%	25%	36%							
HJ8.5 of WO 2014/008404 (antibody)	46%	79%	67%	43%	73 nM					
IPN002 of WO2014/028777A2 (antibody)	19%	64%	50%	22%	207 nM	122 nM	73%			
PT3 of WO2013/096380A2 (antibody)	69%	55%	80%	56%	47 nM	26 nM	69%	350 nM	32 nM	1 nM

— patent publication US20210139574A1
